# Measurements as given in the supplement of paper PMC10567573.
# ± gives the standard deviation.
# Assay: protein stability index of a GFP-peptide fusion (GPS, HEK-293T) (PSI 1-6); higher = more stable
# [1] = treatment: DMSO, c terminus: a fixed tail appended
# [2] = treatment: MLN4924 1 uM, 8 h, c terminus: a fixed tail appended
# [3] = treatment: DMSO, c terminus: native
# [4] = treatment: MLN4924 1 uM, 8 h, c terminus: native
# 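Further: 24-mer peptide tiles fused after GFP, lentivirally expressed, FACS-sorted into six equal bins by GFP/DsRed ratio, decoded by Illumina sequencing, PSI is the read-weighted mean bin number.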
Sequence,protein stability index [1],protein stability index [2],protein stability index [3],protein stability index [4]
LECVKFASHCLMNHPDLAKDLTEY [PDS5B],2.62 ± 0.17,2.77 ± 0.78,–,–
LEDYINDRQYDSRGRFGELLLLLP [HNF4A],2.19 ± 0.32,2.22 ± 0.2,–,–
LEEGKHSSHEVKALGAMWKLHKSQ [TRIM9],3.83 ± 0.22,4.22 ± 0.19,–,–
LEKVLEENAQKKRFNQVLKNLLHA [VPS39],2.85 ± 0.22,2.98 ± 0.23,–,–
LENREEPWVKELQDSKEMKQLLDS [ZNF449],5.49 ± 0.18,5.36 ± 0.23,–,–
LETHFRDVSSTEEFLELSPQKLKE [GAN],5.38 ± 0.18,5.37 ± 0.084,–,–
LFENSLCRLTHIPAYKVSGDKNEE [ZER1],4.05 ± 0.17,4.04 ± 0.12,–,–
LFGEKLSGTDAEETILNAFKMLDP [MYL5],3.56 ± 0.28,3.31 ± 0.35,–,–
LFTDRMATRSTTQSNRTSRLIGKK [WEE1],4.25 ± 0.1,4.4 ± 0.063,–,–
LFYILTFVGAIFNGLTLLILGVIG [RTN2],2.7 ± 0.85,3.01 ± 0.67,–,–
LHHKRLAKECMLQEENKSLREENK [CBY2],4.87 ± 0.39,4.89 ± 0.21,–,–
LHQTIYNQACKLLSDDYEQVRSAA [INTS4],2.96 ± 0.48,3.09 ± 0.19,–,–
LHRGQLSLFCLEDKELLCCSCQAD [TRIM35],2.68 ± 0.1,2.79 ± 0.31,–,–
LHRTFDPHFLRVPCWKITLFVIVP [MOG],3.17 ± 0.56,3.08 ± 0.63,–,–
LIPRTMADQQARRQERKPKDRRK [NFE2L1],–,–,5.32 ± 0.22,5.217 ± 0.028
LKDHFSHLLGIPHSVLQIRYSGKI [IQUB],2.19 ± 0.38,2.06 ± 0.39,–,–
LKKHGPICQKTATKKRKTFDSSRQ [ZC2HC1A],4.09 ± 0.26,4.13 ± 0.38,–,–
LKKKQKRQAELLEKRLQEIEELER [SRPK2],4.2 ± 0.29,4.24 ± 0.49,–,–
LKKSSQVPRTEAPAPASSTPQEPW [PDLIM7],4.74 ± 0.3,4.76 ± 0.46,–,–
LKLLNHPNVIEYYENFLEDKALMI [NEK8],2.39 ± 0.4,2.34 ± 0.23,–,–
LKPSWFDFGFAILGFAYAKEDKIM [MIA2],3.06 ± 0.61,2.34 ± 0.53,–,–
LKQRTVIEMFKSITHSTVGSKGEK [EHMT1],3.16 ± 0.18,3.17 ± 0.33,–,–

Sequence,protein stability index [1],protein stability index [2],protein stability index [3],protein stability index [4]
LKRRFSRLENRYEALAKQVASEMR [DAPK3],2.47 ± 0.26,2.69 ± 0.17,–,–
LKTSEVTQHLPRECLPENLGGYVK [PTPN9],3.97 ± 0.38,3.73 ± 0.56,–,–
LKYIGMAKREINKLLKQKEKKNE [ARL6IP1],–,–,3.7 ± 0.17,3.83 ± 0.31
LLCPLCQEEEQAETPMAPVPLGPL [TRIM15],3.38 ± 0.67,3.73 ± 0.35,–,–
LLDQIREGAQLKKVEQNSRPVSCS [WASL],4.852 ± 0.026,4.63 ± 0.24,–,–
LLFAGSSLASQVHAAAVNGDKGAL [INVS],2.61 ± 0.34,2.76 ± 0.21,–,–
LLFKDLIKLFACYNDGVINLLEKF [SNAP91],3.04 ± 0.34,2.81 ± 0.87,–,–
LLFPEEEATNGREGLLRFSSWPFS [AUP1],2.58 ± 0.23,2.51 ± 0.21,–,–
LLGEIDLEKESDTPLQQVSIEEIL [LSM1],4.97 ± 0.16,4.93 ± 0.27,–,–
LLGGDLRYHLQQNVHFKEETVKLF [STK32A],2.36 ± 0.41,2.6 ± 0.27,–,–
LLIDFAYTSQITVEEGNVQTLLPA [KLHL20],2.29 ± 0.5,1.94 ± 0.12,–,–
LLKPIPEYSPEEESEPPAPNIRNM [TRAF3IP2],5.12 ± 0.11,5.22 ± 0.37,–,–
LLQCLEDLDANLRKLNSRLFVIRG [CRY1],2.67 ± 0.25,2.68 ± 0.29,–,–
LLQTEPQNNQAKELERLIDKAMKK [FIS1],3.99 ± 0.19,4.27 ± 0.17,–,–
LLRQLGRDAGATPSAAGAPASAPG [ANKRD9],4.12 ± 0.4,4.36 ± 0.15,–,–
LLSIIATVMILPVTHTEISPEQQF [TMEM175],3.47 ± 0.95,3.02 ± 0.35,–,–
LLWRKQLFCDVTLTAQGQQFHCHK [KLHL14],2.23 ± 0.41,1.99 ± 0.23,–,–
LMDEGASSEKKRQSSADGSQPPKK [RBBP5],5.56 ± 0.36,5.53 ± 0.24,–,–
LMMRMGILGRGLQEYQLPYQRVLP [TCAP],2.48 ± 0.4,2.28 ± 0.25,–,–
LMSLQNQLKESKSKIDALSSEKLN [CEP70],4.13 ± 0.15,4.05 ± 0.19,–,–
LNFWNKQDTLELESPSLTSTPVCS [MYBL2],3.58 ± 0.12,3.63 ± 0.2,–,–
LNMFLAIINDTYSEVKEELAGQKD [PKD2L1],2.21 ± 0.3,2.37 ± 0.43,–,–
